Here are results for two molecules from patent publication US20150025225A1 (SHIONOGI, published 2015).

Assay [1] deals with T1, human EL-411-459 fragment (human).
T1 construct: Used as HEK293 lysate
T1 chain: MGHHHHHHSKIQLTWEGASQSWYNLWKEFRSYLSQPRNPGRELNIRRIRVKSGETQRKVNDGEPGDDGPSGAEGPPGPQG
The assay can be described thus: sandwich ELISA with human EL fragment lysate, as Example 10. A general note: An ELISA detects its analyte on a solid surface through an enzyme-linked reagent.

The target of assay [2] is T2, Baboon EL-C2 tag (baboon, UniProt Q9Y5X9 21-500 (human entry), limits assumed).
T2 construct: used as heparin extract of transfected HEK293F cells; also called baboon EL heparin extract
T2 chain: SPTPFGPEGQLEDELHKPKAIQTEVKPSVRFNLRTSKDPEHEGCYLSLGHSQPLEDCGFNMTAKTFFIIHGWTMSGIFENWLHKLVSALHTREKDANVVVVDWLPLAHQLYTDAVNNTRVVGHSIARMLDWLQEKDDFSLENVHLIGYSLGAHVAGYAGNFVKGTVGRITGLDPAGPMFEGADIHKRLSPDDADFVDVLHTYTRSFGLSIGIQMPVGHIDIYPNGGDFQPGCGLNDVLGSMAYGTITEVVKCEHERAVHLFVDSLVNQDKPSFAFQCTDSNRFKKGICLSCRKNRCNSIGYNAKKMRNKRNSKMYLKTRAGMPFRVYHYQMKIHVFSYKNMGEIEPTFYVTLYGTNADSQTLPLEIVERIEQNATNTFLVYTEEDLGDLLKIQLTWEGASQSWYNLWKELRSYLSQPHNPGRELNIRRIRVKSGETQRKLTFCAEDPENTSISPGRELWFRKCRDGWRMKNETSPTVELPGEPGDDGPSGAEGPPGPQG
Description: Biacore SPR; EL captured by anti-C2-tag antibody, antibody as analyte, bivalent fit; column head prints nM, kd/ka gives M. The method, then: (§1) The binding affinities of anti-EL antibodies were measured using Biacore. Anti-C2-tag antibody was immobilized on a sensor chip CM5 (GE HealthCare) using amine-coupling and baboon EL heparin extract or cynomolgus monkey heparin extract diluted with HBS-P (GE Healthcare) was added and EL were captured on the sensor chip. Then anti-EL antibodies diluted with HBS-P were added and the binding affinities were calculated by bivalent fitting of BIAevaluation software (FIG. 9A-G).
Background: Surface plasmon resonance follows binding to a sensor surface in real time, without labels.

Assay [3] addresses T3, cynomolgus monkey EL-C2 tag (cynomolgus monkey, UniProt Q9Y5X9 21-500 (human entry), limits assumed).
T3 construct: used as heparin extract of transfected HEK293F cells; also called cynomolgus EL
T3 chain: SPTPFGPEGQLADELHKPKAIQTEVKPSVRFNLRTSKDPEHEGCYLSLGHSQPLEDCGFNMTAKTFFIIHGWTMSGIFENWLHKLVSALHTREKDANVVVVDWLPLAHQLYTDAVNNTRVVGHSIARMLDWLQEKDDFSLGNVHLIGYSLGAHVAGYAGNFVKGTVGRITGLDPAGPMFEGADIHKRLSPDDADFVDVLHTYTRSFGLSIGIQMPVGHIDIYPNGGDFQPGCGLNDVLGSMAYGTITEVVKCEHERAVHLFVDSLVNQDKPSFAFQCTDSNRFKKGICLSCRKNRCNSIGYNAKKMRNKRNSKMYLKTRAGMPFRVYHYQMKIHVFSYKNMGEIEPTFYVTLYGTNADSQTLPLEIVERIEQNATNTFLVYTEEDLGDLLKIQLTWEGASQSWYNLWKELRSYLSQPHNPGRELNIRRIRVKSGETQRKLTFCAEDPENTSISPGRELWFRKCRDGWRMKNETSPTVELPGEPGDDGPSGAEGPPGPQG
The description is as above. How it is done: as §1

For assay [4], the target named is T2, Baboon EL-C2 tag. Description: Biacore SPR; EL heparin extract captured by anti-C2-tag antibody on CM5, antibody as analyte, bivalent fit. How it is done: as §1
In assay [5] the target is T3, cynomolgus monkey EL-C2 tag. The description is as above. How it is done: as §1
Assay [6] concerns the target T2, Baboon EL-C2 tag. The assay can be described thus: cell-based or functional assay.
Assay [7] concerns the target T3, cynomolgus monkey EL-C2 tag. Description: cell-based or functional assay.
The target of a further assay is T4, rabbit EL-C2 tag (rabbit).
T4 chain: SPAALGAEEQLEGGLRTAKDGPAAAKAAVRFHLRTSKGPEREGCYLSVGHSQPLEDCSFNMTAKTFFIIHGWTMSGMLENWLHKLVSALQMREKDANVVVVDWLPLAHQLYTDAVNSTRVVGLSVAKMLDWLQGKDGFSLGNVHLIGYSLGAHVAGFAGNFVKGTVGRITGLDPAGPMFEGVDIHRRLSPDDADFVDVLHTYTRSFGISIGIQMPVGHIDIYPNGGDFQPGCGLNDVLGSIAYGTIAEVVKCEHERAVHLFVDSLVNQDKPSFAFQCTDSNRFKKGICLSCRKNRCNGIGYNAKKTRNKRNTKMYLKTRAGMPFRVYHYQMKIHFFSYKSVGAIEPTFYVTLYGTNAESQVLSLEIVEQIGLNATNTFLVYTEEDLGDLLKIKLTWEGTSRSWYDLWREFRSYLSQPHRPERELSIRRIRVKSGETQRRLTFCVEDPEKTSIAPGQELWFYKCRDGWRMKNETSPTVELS
Description: cell-based or functional assay.

Assay [8] deals with T5, human EL[331-459]-mouse EL-C2 tag (human/mouse chimera, UniProt Q9WVG5 21-500 (mouse entry)).
T5 chain: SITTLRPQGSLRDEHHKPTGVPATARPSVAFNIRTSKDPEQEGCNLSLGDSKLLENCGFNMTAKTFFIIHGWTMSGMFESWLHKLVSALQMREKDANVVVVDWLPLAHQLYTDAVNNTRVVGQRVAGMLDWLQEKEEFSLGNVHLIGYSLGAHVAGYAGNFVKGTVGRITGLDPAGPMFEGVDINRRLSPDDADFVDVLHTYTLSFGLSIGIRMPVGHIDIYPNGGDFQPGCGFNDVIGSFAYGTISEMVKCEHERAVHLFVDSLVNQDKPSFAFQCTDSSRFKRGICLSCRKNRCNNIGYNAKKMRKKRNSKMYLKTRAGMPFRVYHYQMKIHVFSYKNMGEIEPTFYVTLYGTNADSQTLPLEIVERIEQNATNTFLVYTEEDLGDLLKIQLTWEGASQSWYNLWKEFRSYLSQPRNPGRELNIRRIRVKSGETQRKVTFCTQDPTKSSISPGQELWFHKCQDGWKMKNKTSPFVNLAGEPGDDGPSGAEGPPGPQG
The assay can be described thus: cell-based or functional assay.

Broadly, the koff is a measure of how fast the partners let go of each other. Broadly, the kon is the second-order rate constant of association.

B1: 47B2 antibody (antibody, IgG2a, V domains shown)
VH: QVALKESGPGILQPSQTLSLTCSFSGFSLSTSGMGVGWIRQPSGKGLEWLAHIWWHGNKYYSTGLKSRLTISKDTSNNQVFLKIASVDTADTATYYCARISAGYPLDYWGQGTSVTVSS
VL: DIQMTQSPSSLSASLGGKVTITCKASQDINKYIVWYQHKPGKGPRLLIHYTSTLQPGFPSRFSGSGSGRDYSLSITNLEPEDIATYYCLQYDNLLWTFGGGTKLEIK
Consider B1, for which the binding result in [1] is “binds”. The Kd was 4 nM with Baboon EL-C2 tag [2] and 1.3 nM in assay [3]. Further, the results for the koff (with Baboon EL-C2 tag [4]; in assay [5]) were 0.00056 s⁻¹ and 0.00033 s⁻¹, respectively. Further, the kon in the assay with Baboon EL-C2 tag [4] was determined as 140000 M⁻¹ s⁻¹; in assay [5] it was 250000 M⁻¹ s⁻¹. Also, the “Neutralizing activity_IC50” value came to 4.6 nM with Baboon EL-C2 tag [6], 4.7 nM in assay [7], 37 nM in the assay with rabbit EL-C2 tag and 5.3 nM in assay [8].

B2: 12B10 antibody (antibody, IgG2a, V domains shown)
VH: QVTLKESGPGILKPSQTLSLTCSFSGFSLSTSGMGVGWIRQPSGKGLEWLAHIWWNDEKYYNPSLKSQLTISKDTSRNQVFLKITSVDTADTATYYCARSYDGSPFPSWGQGTLVTVSA
VL: DIQMTQSPSSLSASLGGKVTITCKASQDINKYIAWFQHKPGKGPRLLMAYPFTLQPGIPSRFSGNGSGRDYSFSISNLEPEDIATYYCLQYDNLLWTFGGGTRLEIK
With B2, the Kd with Baboon EL-C2 tag [2] was found to be 0.6 nM; in [3], 0.2 nM. The values for the koff (with Baboon EL-C2 tag [4]; in assay [5]) were 0.00021 s⁻¹ and 0.00018 s⁻¹, respectively. Further, the kon with Baboon EL-C2 tag [4] was determined as 350000 M⁻¹ s⁻¹; in [5] it was 880000 M⁻¹ s⁻¹. Also, the “Neutralizing activity_IC50” value was found to be 7.1 nM with Baboon EL-C2 tag [6], 6.2 nM in assay [7], 201 nM with rabbit EL-C2 tag and 15 nM in assay [8].
